# Measurements from the supplement of paper PMC7877785.
# ± gives the uncertainty stated by the source.
# Test: self-splicing fitness, log relative to wild type (ln ratio); higher = more splicing; Tetrahymena group I intron in knt gene, E. coli kanamycin selection, DiMSum; sequences stand for … in CUCUCU…GGAGGGAAAAGUUAUCAGGCAUGCACCUGGUAGCUAGUCUUUAAACCAAUAGAUUGCAUCGGUUUAAAAGGCAAGACCGUCAAAUUGCGGGAAAGGGGUCAACAGCCGUUCAGUACCAAGUCUCAGGGGAAACUUUGAGAUGGCCUUGCAAAGGGUAUGGUAAUAAGCUGACGGACAUGGUCCUAACCACGCAGCCAAGUCCUAAGUCAACAGAUCUUCUGUUGAUAUGGAUGCAGUUCACAGACUAAAUGUCGGUCGGGGAAGAUGUAUUCUUCUCAUAAGAUAUAGUCGGACCUCUCCUUAAUGGGAGCUAGCGGAUGAAGUGAUGCAACACUGGAGCCGCUGGGAACUAAUUUGUAUGCGAAAGUAUAUUGAUUAGUUUUGGAGUACUCGUGGUCG
# In short: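 Pooled colonies went to amplicon sequencing on an Illumina HiSeq 2500 after six replicate transformations. The plates were LB agar with 100 μg/mL carbenicillin, 50 μM IPTG and 0.2% rhamnose, with or without 25 μg/mL kanamycin, incubated overnight at 37°C or 30°C. The E. coli BL21(DE3) library had all eight P1ex-region intron nucleotides randomised, the intron placed in the knt kanamycin-resistance gene on pET-22b(+). DiMSum fitness is the error-weighted combination of replicate fold changes, kanamycin against none, normalised to wild type.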
Sequence,self-splicing fitness (ln) (30 °C),self-splicing fitness (ln) (37 °C)
UACUAGCAAUAUUACGUGGG,-3.32 ± 0.19,-2.46 ± 0.18
UACUAGCAAUAUUACGUUCA,-0.586 ± 0.08,-0.193 ± 0.09
UAGAAGCAAUAUUACGAACG,-0.0437 ± 0.11,0.576 ± 0.14
UAGAAGCAAUAUUACGAAGC,,-2.2 ± 0.24
UAGAAGCAAUAUUACGAGGU,,-2.14 ± 0.2
UAGAAGCAAUAUUACGCAAG,-2.33 ± 0.2,-0.64 ± 0.17
UAGAAGCAAUAUUACGCAGC,-4.25 ± 0.46,-2.93 ± 0.31
UAGAAGCAAUAUUACGCAUU,-2.41 ± 0.29,-2.59 ± 0.3
UAGAAGCAAUAUUACGCUCU,-2.53 ± 0.2,-2.75 ± 0.32
UAGAAGCAAUAUUACGCUUA,-1.9 ± 0.15,-0.832 ± 0.14
UAGAAGCAAUAUUACGGACC,-2 ± 0.4,-0.433 ± 0.34
UAGAAGCAAUAUUACGGAGA,-3.26 ± 0.39,-2.46 ± 0.26
UAGAAGCAAUAUUACGGCCU,-0.838 ± 0.12,-1.15 ± 0.15
UAGAAGCAAUAUUACGGGUA,-1.02 ± 0.16,-0.329 ± 0.14
UAGAAGCAAUAUUACGGUAA,-1.64 ± 0.091,-0.669 ± 0.073
UAGAAGCAAUAUUACGGUCG,-0.229 ± 0.1,0.153 ± 0.14
UAGAAGCAAUAUUACGUAAG,-2.31 ± 0.13,-1.3 ± 0.16
UAGAAGCAAUAUUACGUCAG,-0.574 ± 0.078,-0.0756 ± 0.092
UAGAAGCAAUAUUACGUCAU,-2.84 ± 0.2,-1.99 ± 0.15
UAGAAGCAAUAUUACGUCCA,-0.0908 ± 0.069,0.309 ± 0.1
UAGAAGCAAUAUUACGUCGA,-1.61 ± 0.14,-0.578 ± 0.14
UAGAAGCAAUAUUACGUGAA,-2.05 ± 0.07,-1.5 ± 0.092
UAGAAGCAAUAUUACGUGGG,-3.09 ± 0.18,-2 ± 0.19
UAGAAGCAAUAUUACGUGUG,-0.994 ± 0.069,-0.74 ± 0.084
UAGCAGCAAUAUUACGAAAU,-1.96 ± 0.24,-1.66 ± 0.28

Sequence,self-splicing fitness (ln) (30 °C),self-splicing fitness (ln) (37 °C)
UAGCAGCAAUAUUACGACAC,,-2.15 ± 0.33
UAGCAGCAAUAUUACGACAG,-0.896 ± 0.1,-0.68 ± 0.13
UAGCAGCAAUAUUACGACGC,-3.94 ± 0.31,-1.82 ± 0.19
UAGCAGCAAUAUUACGAGCU,-1.5 ± 0.13,-0.893 ± 0.14
UAGCAGCAAUAUUACGAUAU,-2.42 ± 0.15,-2.98 ± 0.19
UAGCAGCAAUAUUACGAUCU,-1.92 ± 0.081,-1.08 ± 0.077
UAGCAGCAAUAUUACGCACG,-0.945 ± 0.13,-0.318 ± 0.14
UAGCAGCAAUAUUACGCCAG,-1.46 ± 0.13,-0.751 ± 0.19
UAGCAGCAAUAUUACGCCCA,-0.744 ± 0.3,0.445 ± 0.47
UAGCAGCAAUAUUACGGAAA,-1.82 ± 0.17,-1.81 ± 0.29
UAGCAGCAAUAUUACGGACU,-1.07 ± 0.1,-0.713 ± 0.15
UAGCAGCAAUAUUACGGCGC,-2.08 ± 0.23,0.611 ± 0.23
UAGCAGCAAUAUUACGGUCC,-3.66 ± 0.26,-2.03 ± 0.24
UAGCAGCAAUAUUACGGUUA,-0.0652 ± 0.056,-0.181 ± 0.064
UAGCAGCAAUAUUACGUAAC,-3.52 ± 0.19,-2.42 ± 0.21
UAGCAGCAAUAUUACGUCGA,-1.12 ± 0.071,-0.528 ± 0.082
UAGCAGCAAUAUUACGUGGA,-2.16 ± 0.12,-1.46 ± 0.11
UAGCAGCAAUAUUACGUUAU,-3.74 ± 0.23,-2.92 ± 0.24
UAGGAGCAAUAUUACGAAAA,-3.01 ± 0.45,-1.65 ± 0.41
UAGGAGCAAUAUUACGAACA,-2.08 ± 0.29,
UAGGAGCAAUAUUACGAAGC,-4.41 ± 0.33,-1.44 ± 0.26
UAGGAGCAAUAUUACGACAU,-3.83 ± 0.039,-2.8 ± 0.047
UAGGAGCAAUAUUACGACGU,,-1.9 ± 0.38
UAGGAGCAAUAUUACGAUAC,-4.56 ± 0.32,-1.86 ± 0.28
UAGGAGCAAUAUUACGAUGG,-3.36 ± 0.28,-1.4 ± 0.24

Sequence,self-splicing fitness (ln) (30 °C),self-splicing fitness (ln) (37 °C)
UAGGAGCAAUAUUACGCAGG,-2 ± 0.21,
UAGGAGCAAUAUUACGCGUA,-1.12 ± 0.15,-0.31 ± 0.12
UAGGAGCAAUAUUACGGCGG,-2.34 ± 0.24,-0.013 ± 0.26
UAGGAGCAAUAUUACGGGCA,-2.72 ± 0.26,-2.63 ± 0.39
UAGGAGCAAUAUUACGGGUG,-2.74 ± 0.27,-1.14 ± 0.26
UAGGAGCAAUAUUACGGUAU,-2.93 ± 0.36,-2.66 ± 0.3
UAGGAGCAAUAUUACGGUCU,-1.36 ± 0.37,
UAGGAGCAAUAUUACGUGAG,-2.42 ± 0.14,-1.55 ± 0.14
UAGUAGCAAUAUUACGACCC,-0.998 ± 0.35,-1.28 ± 0.43
UAGUAGCAAUAUUACGCAAA,-3.4 ± 0.3,-2.28 ± 0.2
UAGUAGCAAUAUUACGCACA,-1.2 ± 0.1,-0.493 ± 0.12
UAGUAGCAAUAUUACGCACU,-0.737 ± 0.11,-0.331 ± 0.12
UAGUAGCAAUAUUACGCAGC,-2.96 ± 0.47,
UAGUAGCAAUAUUACGCCCA,0.0306 ± 0.38,
UAGUAGCAAUAUUACGCCUG,-0.198 ± 0.12,-0.437 ± 0.13
UAGUAGCAAUAUUACGCGAG,-1.57 ± 0.12,-0.941 ± 0.17
UAGUAGCAAUAUUACGCUCG,0.127 ± 0.15,0.103 ± 0.19
UAGUAGCAAUAUUACGGAGU,-4.27 ± 0.28,-2.62 ± 0.16
UAGUAGCAAUAUUACGGCUU,-0.242 ± 0.11,0.187 ± 0.13
UAGUAGCAAUAUUACGGGCA,-1.17 ± 0.16,-0.536 ± 0.15
UAGUAGCAAUAUUACGUAGU,-4.39 ± 0.42,-0.839 ± 0.21
UAGUAGCAAUAUUACGUAUA,-1.69 ± 0.25,-1.14 ± 0.27
UAGUAGCAAUAUUACGUCUC,-3.51 ± 0.45,-1.59 ± 0.2
UAGUAGCAAUAUUACGUGUG,-2.02 ± 0.11,-1.23 ± 0.13
UAUAAGCAAUAUUACGAAAC,,-0.0191 ± 0.39

Sequence,self-splicing fitness (ln) (30 °C),self-splicing fitness (ln) (37 °C)
UAUAAGCAAUAUUACGAAUA,-1.55 ± 0.24,-0.822 ± 0.19
UAUAAGCAAUAUUACGACGG,-0.907 ± 0.12,0.474 ± 0.18
UAUAAGCAAUAUUACGAGAG,-3.52 ± 0.38,-2.52 ± 0.27
UAUAAGCAAUAUUACGAGCA,-0.842 ± 0.23,-0.234 ± 0.18
UAUAAGCAAUAUUACGAUAA,-1.17 ± 0.12,-0.947 ± 0.12
UAUAAGCAAUAUUACGAUGA,-0.333 ± 0.1,0.344 ± 0.13
UAUAAGCAAUAUUACGCAGA,-0.745 ± 0.45,-1.25 ± 0.18
UAUAAGCAAUAUUACGCCAA,-1.14 ± 0.29,-0.0916 ± 0.42
UAUAAGCAAUAUUACGCCGG,-0.545 ± 0.16,-0.0733 ± 0.18
UAUAAGCAAUAUUACGCCUG,-0.378 ± 0.13,0.297 ± 0.16
UAUAAGCAAUAUUACGCGCG,-0.131 ± 0.11,-0.655 ± 0.14
UAUAAGCAAUAUUACGGAAA,-2.19 ± 0.37,-1.48 ± 0.33
UAUAAGCAAUAUUACGGAAU,-2.37 ± 0.22,-0.6 ± 0.16
UAUAAGCAAUAUUACGGCAA,-0.395 ± 0.17,-0.0869 ± 0.2
UAUAAGCAAUAUUACGGGUA,-0.177 ± 0.1,0.401 ± 0.12
UAUAAGCAAUAUUACGGUUG,-1.61 ± 0.11,-0.603 ± 0.13
UAUAAGCAAUAUUACGUACA,-0.793 ± 0.12,-0.427 ± 0.14
UAUAAGCAAUAUUACGUCAC,-2.89 ± 0.33,-1.38 ± 0.32
UAUAAGCAAUAUUACGUCCA,-1.23 ± 0.12,0.113 ± 0.18
UAUAAGCAAUAUUACGUCUC,,-2.22 ± 0.35
UAUAAGCAAUAUUACGUGAA,0.0802 ± 0.12,-0.933 ± 0.15
UAUAAGCAAUAUUACGUGCC,-3.05 ± 0.22,-1.44 ± 0.17
UAUAAGCAAUAUUACGUGCU,-2.56 ± 0.16,-1.32 ± 0.15
